Laboratory results reported in patent US7276481B2, “Method and composition for treatment of skeletal dysplasias” (ProChon Biotech Ltd., priority 2001, dated 2007).
Entries after “also recorded” stand apart in the source; their conditions may differ. Where two headings read alike, the source gives them in different places.

Columns and labels:
[1] = target: T1, natriuretic peptide receptor on C3H10T1/2 cells (Mus musculus, UniProt Q6VVW5); assay: Biotrak enzyme immunoassay of cGMP elicited on C3H10T1/2 cells; assay type: cell-based
T1 construct: endogenous in cells; host or cells: C3H10T1/2 cells
T1 sequence (Q6VVW5 23-1047 limits assumed): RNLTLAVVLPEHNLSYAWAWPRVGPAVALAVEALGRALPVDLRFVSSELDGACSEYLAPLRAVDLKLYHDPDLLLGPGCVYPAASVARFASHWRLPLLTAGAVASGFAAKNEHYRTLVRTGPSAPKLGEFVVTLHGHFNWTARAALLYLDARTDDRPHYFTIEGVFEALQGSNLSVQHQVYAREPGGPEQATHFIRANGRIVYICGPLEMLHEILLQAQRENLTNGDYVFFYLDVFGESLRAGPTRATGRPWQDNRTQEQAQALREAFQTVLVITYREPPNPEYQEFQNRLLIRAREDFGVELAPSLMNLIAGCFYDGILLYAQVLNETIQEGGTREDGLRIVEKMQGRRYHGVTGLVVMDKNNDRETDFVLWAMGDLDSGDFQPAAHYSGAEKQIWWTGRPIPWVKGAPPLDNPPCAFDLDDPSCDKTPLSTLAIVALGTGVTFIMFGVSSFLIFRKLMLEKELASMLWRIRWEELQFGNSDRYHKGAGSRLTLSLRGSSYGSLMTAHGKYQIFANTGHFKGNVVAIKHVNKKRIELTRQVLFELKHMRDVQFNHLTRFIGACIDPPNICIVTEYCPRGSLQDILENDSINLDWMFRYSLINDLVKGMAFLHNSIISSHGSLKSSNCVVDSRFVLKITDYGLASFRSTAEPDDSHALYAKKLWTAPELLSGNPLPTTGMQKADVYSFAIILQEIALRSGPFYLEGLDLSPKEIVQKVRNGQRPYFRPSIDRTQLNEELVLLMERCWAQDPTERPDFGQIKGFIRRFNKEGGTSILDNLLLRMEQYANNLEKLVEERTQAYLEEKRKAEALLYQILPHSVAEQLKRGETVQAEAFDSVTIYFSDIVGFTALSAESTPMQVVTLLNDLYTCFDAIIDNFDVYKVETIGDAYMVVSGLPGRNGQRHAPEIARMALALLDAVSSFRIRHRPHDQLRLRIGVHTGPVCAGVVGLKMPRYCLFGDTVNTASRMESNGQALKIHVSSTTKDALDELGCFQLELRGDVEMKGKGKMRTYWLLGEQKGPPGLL
Procedure: All peptide variants were analyzed for activity using the Biotrak enzyme immunoassay (EIA, Amersham) that measures the amount of secondary messenger, cyclic GMP (cGMP), elicited after activation of the natriuretic peptide receptor by the peptide on C3H10T1/2 cells. Amino acid substitutions are marked in bold and underlined. The assay was performed for CNP and variants at a concentration of 10^−6 M. The values are given as the percent of relative binding compared to CNP, where CNP 1-22 and CNP 5-22 yield 100% binding.

[2] = tested on: femora derived from achondroplasia model mice (Ach369, Ach374) and wild type littermates; assay: Ex vivo femoral bone culture; conditions: for Growth rate (days 0-3) / Growth rate (days 3-15): CNP treated femora, 40 units=1 mm; for bone elongation / longitudinal growth in bone culture (in words): femora of Ach and wild type mice, versus vehicle or untreated
Procedure: Femora derived from achondroplasia model mice (Ach369 knock-in mice carry the Gly to Cys mutation at position 369, analogous to position 375 in humans or Ach374 knock-in mice that carry the Gly to Arg mutation at position 374, analogous to position 380 in humans) were dissected from P0 wild type, heterozygote and homozygote littermates and cultured in the presence of natriuretic peptides for 15 days.
Protocol for Bone Culture: Femoral bone cultures were performed by excising the hind limbs of mice. The limbs were carefully cleaned from the surrounding tissue (skin and muscles) and the femora exposed. The femora were removed and further cleared from tissue remains and ligaments. The femora were measured for their initial length, using a binocular with an eyepiece micrometer ruler. The bones were grown in 1 ml of medium (α-MEM supplemented with penicillin (100 units/ml), streptomycin (0.1 mg/ml), nystatin (12.5 units/ml), BSA (0.2%), β-glycerophosphate (1 mM) and freshly prepared ascorbic acid (50 μg/ml)) with varying concentrations of NPs or CNP variants in a 24 well tissue culture dish. The bones were cultured for 15 days while measurements of bone length and medium replacement were performed every three days. At the end of the experiment, the growth rate of the bones was determined. The growth rate of bones is calculated from the slope of a linear regression fit on the length measurements obtained from day 3 to 15. Units given can be converted to length, 40 units=1 mm.

[3] = tested on: fetal bone organ culture from wild type (normal) animals; conditions: wild type fetal bones; cited from earlier work
[4] = 125Iodine-labeled GH in blood after IP administration; assay type: in vivo, mice; conditions: 125Iodine-labeled GH IP, one hour after a pulse of unlabelled GH
Excerpt: To determine whether GH can enter the growth plate from the circulation, GH was labeled with ^125Iodine and administered to mice IP, one hour after a pulse of unlabelled GH. Blood samples were collected at several time points and analyzed on a protein gel.

[5] = Table 2, cGMP assay, compared to CNP
[6] = Table 3, cGMP values at 10^-6 M, compared to CNP (CNP 1-22 and CNP 5-22 = 100%)

Substance: C H F G L K L D R I G S M S - - C (CHFGLKLDRIGSMSC; peptide variant) [SEQ ID NO:11]
- cGMP response as percent of CNP [1, 5]: 25.9%

Substance: C F G L K L D R I G N M S G L G C (CFGLKLDRIGNMSGLGC; peptide variant) [SEQ ID NO:57]
- cGMP response as percent of CNP [1, 6]: 27.430%

Substance: C F G L K L I R I G S M S G L G C (CFGLKLIRIGSMSGLGC; peptide variant) [SEQ ID NO:38]
- cGMP response as percent of CNP [1, 6]: 7.228%

Substance: C F G L K L D R I G T M S G L G C (CFGLKLDRIGTMSGLGC; peptide variant) [SEQ ID NO:56]
- cGMP response as percent of CNP [1, 6]: 74.080%

Substance: C H G L K L D R I G S A S G L G C (CHGLKLDRIGSASGLGC; peptide variant) [SEQ ID NO:70]
- cGMP response as percent of CNP [1, 6]: 3.058%

Substance: C M G L K L D R I G S M S G L G C (CMGLKLDRIGSMSGLGC; peptide variant) [SEQ ID NO:30]
- cGMP response as percent of CNP [1, 6]: −1.341%

Substance: C F G L K L D R I G S - - - - - C (CFGLKLDRIGSC; peptide variant) [SEQ ID NO:21]
- cGMP response as percent of CNP [1, 5]: 22.7%

Substance: C F G L K L Q R I G S M S G L G C (CFGLKLQRIGSMSGLGC; peptide variant) [SEQ ID NO:36]
- cGMP response as percent of CNP [1, 6]: −17.095%

Substance: C F G V K L D R I G S M S G L G C (CFGVKLDRIGSMSGLGC; peptide variant) [SEQ ID NO:42]
- cGMP response as percent of CNP [1, 6]: 64.212%

Substance: C F G L K L D R I G A M - - - - C (CFGLKLDRIGAMC) [SEQ ID NO:17]
- cGMP response as percent of CNP [1, 5]: 3.4%

Substance: C-type natriuretic peptide [CNP]
- Growth rate (days 0-3) ([2]; +/+ wild type (wt)): 0.25 mm/day
- Growth rate (days 3-15) ([2]; +/+ wild type (wt)): 0.143 mm/day
- Growth rate (days 0-3) ([2]; Ach/+ heterozygote): 0.228 mm/day
- Growth rate (days 3-15) ([2]; Ach/+ heterozygote): 0.085 mm/day
- Growth rate (days 0-3) ([2]; Ach/Ach homozygote): 0.177 mm/day
- Growth rate (days 3-15) ([2]; Ach/Ach homozygote): 0.07 mm/day
- bone elongation / longitudinal growth in bone culture (in words) [2]: increased the total longitudinal growth of femora; also recorded: increased in size at a rate higher than that of the untreated limbs
- induction of bone elongation (rank order) [3]: more than BNP and much more than ANP
- cGMP response as percent of CNP [1, 6]: 100%

Substance: C F G L K L D R I G S G S G L G C (CFGLKLDRIGSGSGLGC; peptide variant) [SEQ ID NO:69]
- cGMP response as percent of CNP [1, 6]: 62.117%

Substance: C F G I K L D R I G S M S G L G C (CFGIKLDRIGSMSGLGC; peptide variant) [SEQ ID NO:41]
- cGMP response as percent of CNP [1, 6]: 47.395%

Substance: C F G L K L D R I G S M S G A G C (CFGLKLDRIGSMSGAGC; peptide variant) [SEQ ID NO:63]
- cGMP response as percent of CNP [1, 6]: −1.111%

Substance: C F G L K L D R I G A Q S - - - C (CFGLKLDRIGAQSC; peptide variant) [SEQ ID NO:15]
- cGMP response as percent of CNP [1, 5]: 20.6%

Substance: GH: growth hormone labeled with 125Iodine and administered to mice IP
- labeling of blood samples on a protein gel over time [4]: increases in the first 2-3 hours, can still be observed at 6 hours and almost disappears at 24 hrs

Substance: C F G L L L D R I G S M S G L G C (CFGLLLDRIGSMSGLGC; peptide variant) [SEQ ID NO:43]
- cGMP response as percent of CNP [1, 6]: 29.744%

Substance: C F G L K L D R I G S K S G L G C (CFGLKLDRIGSKSGLGC; peptide variant) [SEQ ID NO:67]
- cGMP response as percent of CNP [1, 6]: 66.910%

Substance: C F G L K L D R I G S W S G L G C (CFGLKLDRIGSWSGLGC; peptide variant) [SEQ ID NO:65]
- cGMP response as percent of CNP [1, 6]: 66.450%

Substance: C F G L K A D R I G S M S G L G C (CFGLKADRIGSMSGLGC; peptide variant) [SEQ ID NO:45]
- cGMP response as percent of CNP [1, 6]: 11.259%

Substance: C F G L K L D R I G S S S G L G C (CFGLKLDRIGSSSGLGC; peptide variant) [SEQ ID NO:68]
- cGMP response as percent of CNP [1, 6]: 62.531%

Substance: C F G L K L D A I G S M S G L G C (CFGLKLDAIGSMSGLGC; peptide variant) [SEQ ID NO:8]
- cGMP response as percent of CNP [1, 5]: 18.4%

Substance: C F G L K L D R I G S M S G G G C (CFGLKLDRIGSMSGGGC; peptide variant) [SEQ ID NO:64]
- cGMP response as percent of CNP [1, 6]: −10.145%

Substance: C T G L K L D R I G S M S G L G C (CTGLKLDRIGSMSGLGC; peptide variant) [SEQ ID NO:34]
- cGMP response as percent of CNP [1, 6]: −6.903%

Substance: C F G L K L D R I G S A S G L G C (CFGLKLDRIGSASGLGC; peptide variant) [SEQ ID NO:10]
- bone elongation / longitudinal growth in bone culture (in words) [2]: induced elongation of Ach369 femora even at a concentration similar to that of CNP
- activity in cGMP assay (in words) [1]: increases activity
- cGMP response as percent of CNP [1, 5]: 138.1%
- activity in cGMP assay (in words) ([1]; listed as SEQ ID NO: 10): retains high activity

Substance: C H F G L K L D R I G A Q S - - C (CHFGLKLDRIGAQSC; peptide variant) [SEQ ID NO:13]
- cGMP response as percent of CNP [1, 5]: 26.5%
